The values that follow come from patent US12495796B2, “Compositions, methods, and applications of a synthetic surfactant” (1283581 B.C. LTD, priority 2019, dated 2025).

Data set [1] is described as follows: Retention of pesticide (Bifenazate) in leaves with RSN 1-6 mixture as adjuvant, GC/MS quantification. The class given is in vivo, Arabidopsis thaliana (columbia ecotype). The conditions noted are these: Floramite + RSN 1-6 mixture vs pesticide alone. The procedure: 12 four-week-old Arabidopsis thaliana (columbia ecotype) plants were used for the experiment. (6 control, 6 experimental) (FIG. 13).
Growth condition: plants were grown in soil at in 16-hour days/8-hour nights light cycle with temperatures of 22° C. Lighting was provided with fluorescent bulbs giving an average light intensity of 175 micromoles/meter^2 second. Seeds were cold treated (stratification) for 3 days at 4° C. after imbibition to synchronize germination
The experimental plants were applied with a mixture of Floramite® and RSN 1-6 mixture (50 μL of 10 mg/mL) directly to the leaves using a pipette. The control plants were applied with just the pesticide. Samples were collected at the end of 5 days and 10 days.
4 control leaves and 4 experimental leaves were collected at the end of 5 days and 10 days of application. The leaves were homogenized using liquid nitrogen and extracted using Methanol:Chloroform mix (2:1) (FIG. 14). […]
A GC/MS instrument (Thermo Focus GC, Polaris ion trap MS) with a DB-5 column was used for quantification of the pesticide. […]
Concentration of Bifenazate in control leaf sample −0.018 μg/μL (FIG. 15). […] Concentrations were calculated using the peak area of the internal standard compared to the peak area of the pesticide. The experimental leaf was calculated to have a 3.6 times the amount of Bifenazate when compared to the control leaf.

The subject of the next data set is E. coli. The data set is described as follows: Kirby Bauer antimicrobial assay (disk-diffusion) on E. coli culture plates. The class given is cell-based, Escherichia coli. The settings on record: 24 hours; for antimicrobial properties / radius of resistance to the E. coli colonies: 20 μL of 10 mg/mL on filter paper disc, 37° C.; for effect on E. coli colonies (kills or slows growth): conclusion from disk-diffusion; for resistance to E. coli (in words): growth of colonies near the filter paper disc. On the procedure:
Antimicrobial agents stop the growth or kill microorganisms such as Escherichia coli (E. coli). The Kirby Bauer antimicrobial assay or disk-diffusion method is used to test what antibiotic will fight against which bacteria strain.^17 The Kirby Bauer antimicrobial assay, is most commonly used to monitor the growth of bacteria growth around a disk, measuring the radius/diameter of the growth from the disk if a gap is present; this can be done in a time period as short as 24 hours or as long as 5 days.^18
RSN mixture was prepared using equal parts of each protein (RSN 1-6) in a concentration of 10 mg/mL and vortexed until combined.^22 E. coli culture plates were prepared and allowed to dry, small filter paper circles were placed on the plate, with a 20 μL of the RSN sample labeled RSN 1-6.
Once the protein was placed on the E. coli culture plates, the plates were placed into a new Brunswick Scientific Excella E24 Incubator Shaker set at 37° C., for 24 hours. After 24 hours the plates were taken out of the incubator shaker and observed.
In general terms: In agar diffusion tests the substance spreads into inoculated agar from a disc or well.

Data set [2] is described as follows: Denaturing of ranaspumin proteins with increasing temperature, monitored by circular dichromium (CD). In kind it is physicochemical. The conditions noted are these: CD 200-300 nm, 0.25 mg/mL, 20-90° C. in 5° C. steps. The procedure: The secondary structure of ranaspumin proteins can be confirmed with CD to identify if there is a presence of an α-helix, β-sheets or random coils. The CD can also be used to monitor the denaturing of a protein structure by observing the intensity of the bands on the spectra. This experiment uses increasing temperature to determine when ranaspumin proteins start to denature in the secondary structure with the use of a CD spectrum. A 3 mL solution with a concentration of 0.25 mg/mL of RSN 1-6 was diluted from a range of 2.69 mg/mL-0.50 mg/mL stock solution. The Jasco 815 […], with Jasco temperature controller and a water bath attachment was used to analyze the RSN 2 protein structure. The initial temperature was set to 20° C., the wavelength was set to 200-300 nm and the temperature was increased by 5° C. after each measurement and allowing for 60 seconds of stability before recording the next measurement, in a temperature range of 20-90° C. A bank was run for a baseline before a 1.5 mL solution was run through the CD and the spectra were monitored for a change in intensity in the bands.

`COc1ccc(-c2ccccc2)cc1NNC(=O)OC(C)C` [Bifenazate]: the results for the “amount of Bifenazate in experimental leaf compared to control leaf” value in data set [1] (after 5 days) and in data set [1] (after 10 days) were 3.6 times and 1.2 times, respectively.

B1: RSN 1: recombinant mature ranaspumin protein without signal peptide, Synthetic Amino Acid Sequence No. 1 (protein, listed as Engystomops pustulosus)
chain: GGGNIGGGAKLGPEKPATPGIQDLLKSLLSVLNLSPPAIPEDAEAVSYRDAKNGKFRLIKIHLGGELYCHVKQIAGPILALPIVSDVVEVTGKECGKTEDDPLEDFPIP
In the case of B1, in the data set with E. coli, the antimicrobial properties entry was “did not show any antimicrobial properties”. For the same molecule, in data set [2], the “temperature at which the protein denatures further” value came out at 70 °C and the “temperature at which the protein starts to denature” value (from here on “temperature … to denature”) is 50 °C.

B2: RSN 6: recombinant mature ranaspumin protein without signal peptide, Synthetic Amino Acid Sequence No. 6 (protein, listed as Engystomops pustulosus)
chain: ETLCIPGRMKQLDAGAGRVVAVKSNGDVYQLLENNWVQIPGKLIHVTVGPAGLWGVNKDKNIYKYVDNDWLQVDGLLNQIDAGGNRFVVGVNDNEDIFCLNQDQTTSNAVKLDYKGVDGKLKYYSSGGYGSWGVNAAYDIFYRRNVHPMSCQGTNWENVEGKLVMLEVAEDGSVYGVNYNGHVYKREGITAGNPMGTSWTYLKVDEKVRHVSYDRGVLYVVTIDDRIFRC
Consider B2, for which, in the data set on E. coli, the antimicrobial properties result is listed as “did not show any antimicrobial properties”. In addition, in data set [2], the “secondary structure staying intact up to” value was 30-39 °C, the slowly denatures until was found to be 90 °C and the “temperature … to denature” value was determined as 40 °C.

B3: RSN 3: recombinant mature ranaspumin protein without signal peptide, Synthetic Amino Acid Sequence No. 3 (protein, listed as Engystomops pustulosus)
chain: IDPTGLVQILLLEQVVHKIPPGNINLARTGIATQDSDYTASAVPSEARLAIDGNRNSDFNQKSCSHTGGNEPAWWRLELKKKSKISVVVIAIRSDCCMDRFKGAELRIGNSQDATVNPICGKVSAVKGSNYLFCCDGMEGKYISVVIPDRHEFLSLCEVEVYGAKPIEGTHCK
Take B3: in the data set on E. coli, the antimicrobial properties entry is “did not show any antimicrobial properties”. Moreover, in data set [2], the “temperature at which the protein fully denatures” value worked out at 70 °C and the “temperature … to denature” value was 70 °C.

B4: RSN 5: recombinant mature ranaspumin protein without signal peptide, Synthetic Amino Acid Sequence No. 5 (protein, listed as Engystomops pustulosus)
chain: GAPGGAAGPLLVLNILGSVVHETKPPEGVNLALKGIASSDSIASNGSVTGLAAKAIDGIRVSDFFKGHCSLTNGLNNPTWWKVDLKKSYKISSVFVTNRDDCCTERLLHAEIRIGSNPDHNHNPICAEVKTVASSNIGFCCGGMEGRYVSVSVPRKEQLSLCEVEVYGDLKKVLHCA
In the case of B4, in the data set with E. coli, the antimicrobial properties result is “presented antimicrobial properties”, the “radius of resistance to the E. coli colonies” value amounted to 0.7 cm, the “effect on E. coli colonies (kills or slows growth)” value is recorded as “slows the rate of the growth of the E. coli colonies” and the “resistance to E. coli (in words)” value is “moderate resistance”. In data set [2], the “temperature at which the protein fully denatures” value was 70 °C.

B5: RSN 4: recombinant mature ranaspumin protein without signal peptide, Synthetic Amino Acid Sequence No. 4 (protein, listed as Engystomops pustulosus)
chain: DRNLALDGRATMSSIWMDPDIRQSFLGVAMNGIDGNTDSVYFHGSCFHTGLDSPAWYRVDLLRTSKISSITITNRGDFGSRTNGAEIRIGDSLANNGNNNPRCALVTSIADGETRTFQCNNMVGRYVNIVLTGKTEFLHLCEVQIFGENLPRSFSCQYSNDGMITLLVSTRFMK
In the case of B5, the antimicrobial properties entry with E. coli is “did not show any antimicrobial properties”. Besides, in data set [2], the “temperature at which the protein denatures further” value was 90 °C and the “temperature … to denature” value is 50 °C.

B6: RSN 2: recombinant mature ranaspumin protein without signal peptide, Synthetic Amino Acid Sequence No. 2; main surfactant (protein, listed as Engystomops pustulosus)
chain: LILDGDLLKDKLKLPVIDNLFGKELLDKFQDDVKDKYGVDTKDLKILKTSEDKRFYYVSVDAGDGEKCKFKIRKDVDVPKMVGRKCRKDDDDDDGY
Take B6: in the data set with E. coli, the antimicrobial properties entry was “presented antimicrobial properties”, the “radius of resistance to the E. coli colonies” value is 1.1 cm, the “effect on E. coli colonies (kills or slows growth)” value is recorded as “kills the E. coli colonies” and the “resistance to E. coli (in words)” value was “high resistance”. In addition, the “temperature … to denature” value in data set [2] worked out at 70 °C.
